{"source": "patent US11819556B2", "about": "“Stabilized compositions of radionuclides and uses thereof” (RayzeBio, Inc., priority 2021, dated 2023)", "assay_type_in_all_cases": "physicochemical", "key": {"[1]": {"assay": "Control formulation without excipient (WFI): radio-TLC purity", "settings": "0.02 mCi/ml; for free Actinium / fragments: 25° C.; for Percentage of ^225Ac present in [^225Ac]Ac-DOTA-TATE: pH 6.13, 25° C.", "description": "The mixture was kept at room temperature (25° C.). At different time points, purity of [^225Ac]Ac-DOTA-TATE in the formulated dose were measured by radio-TLC as described in the table below: […]"}, "[2]": {"assay": "Radioactivity concentration optimization: radio-TLC purity", "settings": "100 mM sodium ascorbate pH 5.80, 0.05 mg/ml DTPA, 25° C.", "description": "The mixture was kept at room temperature (25° C.) and protected from light to prevent photodegradation. At different time points, purity of [^225Ac]Ac-DOTA-TATE in the formulated dose were measured by radio-TLC as described in the table below: […]"}, "[3]": {"assay": "DTPA concentration optimization: radio-TLC purity", "settings": "20 μCi/ml, 100 mM sodium ascorbate pH 5.80, 25° C.", "description": "The mixture was kept at room temperature (25° C.). At different time points, radioactive components of the formulated dose were measured by radio-TLC as described in the table below: […]"}}}
{"substance": "(2,2′,2″-(10-(2-4(R)-1-(((4R,7S,10S,13R,16S,19R)-13-((1H-indol-3-yl)methyl)-10-(4-aminobutyl)-4-(((1S,2R)-1-carboxy-2-hydroxypropyl)carbamoyl)-16-(4-hydroxybenzyl)-7-((R)-1-hydroxyethyl)-6,9,12,15,18-pentaoxo-1,2-dithia-5,8,11,14,17-pentaazacycloicosan-19-yl)amino)-1-oxo-3-phenylpropan-2-yl)amino)-2-oxoethyl)-1,4,7,10-tetraazacyclododecane-1,4,7-triyl)triacetate; actinium-225(3+)) [[^225Ac]Ac-DOTA-TATE]", "values": [{"measurement": "free Actinium", "setting": "[1]; 0 hour", "result": 0.5, "unit": "% free Actinium"}, {"measurement": "Percentage of ^225Ac present in [^225Ac]Ac-DOTA-TATE", "setting": "[1]; 0 hour", "result": 99.5, "unit": "%"}, {"measurement": "fragments", "setting": "[1]; 24 hours", "result": 3.2, "unit": "%"}, {"measurement": "free Actinium", "setting": "[1]; 24 hours", "result": 2.0, "unit": "%"}, {"measurement": "Percentage of ^225Ac present in [^225Ac]Ac-DOTA-TATE", "setting": "[1]; 24 hours", "result": 94.8, "unit": "%"}, {"measurement": "fragments", "setting": "[1]; 48 hours", "result": 4.8, "unit": "%"}, {"measurement": "free Actinium", "setting": "[1]; 48 hours", "result": 3.5, "unit": "%"}, {"measurement": "Percentage of ^225Ac present in [^225Ac]Ac-DOTA-TATE", "setting": "[1]; 48 hours", "result": 91.8, "unit": "%"}, {"measurement": "fragments", "setting": "[1]; 72 hours", "result": 7.7, "unit": "%"}, {"measurement": "free Actinium", "setting": "[1]; 72 hours", "result": 8.8, "unit": "%"}, {"measurement": "Percentage of ^225Ac present in [^225Ac]Ac-DOTA-TATE", "setting": "[1]; 72 hours", "result": 83.5, "unit": "%"}, {"measurement": "fragments", "setting": "[1]; 96 hours", "result": 11.8, "unit": "%"}, {"measurement": "free Actinium", "setting": "[1]; 96 hours", "result": 9.2, "unit": "%"}, {"measurement": "Percentage of ^225Ac present in [^225Ac]Ac-DOTA-TATE", "setting": "[1]; 96 hours", "result": 79.1, "unit": "%"}, {"measurement": "Percentage of ^225Ac present in [^225Ac]Ac-DOTA-TATE", "setting": "[2]; 15 μCi/ml, 0 hour", "result": 99.37, "unit": "%"}, {"measurement": "Percentage of ^225Ac present in [^225Ac]Ac-DOTA-TATE", "setting": "[2]; 15 μCi/ml, 24 hours", "result": 96.92, "unit": "%"}, {"measurement": "Percentage of ^225Ac present in [^225Ac]Ac-DOTA-TATE", "setting": "[2]; 15 μCi/ml, 48 hours", "result": 96.08, "unit": "%"}, {"measurement": "Percentage of ^225Ac present in [^225Ac]Ac-DOTA-TATE", "setting": "[2]; 15 μCi/ml, 72 hours", "result": 98.74, "unit": "%"}, {"measurement": "Percentage of ^225Ac present in [^225Ac]Ac-DOTA-TATE", "setting": "[2]; 15 μCi/ml, 96 hours", "result": 94.83, "unit": "%"}, {"measurement": "Percentage of ^225Ac present in [^225Ac]Ac-DOTA-TATE", "setting": "[2]; 15 μCi/ml, 120 hours", "result": 93.49, "unit": "%"}, {"measurement": "Percentage of ^225Ac present in [^225Ac]Ac-DOTA-TATE", "setting": "[2]; 32 μCi/ml, 0 hour", "result": 99.39, "unit": "%"}, {"measurement": "Percentage of ^225Ac present in [^225Ac]Ac-DOTA-TATE", "setting": "[2]; 32 μCi/ml, 24 hours", "result": 97.92, "unit": "%"}, {"measurement": "Percentage of ^225Ac present in [^225Ac]Ac-DOTA-TATE", "setting": "[2]; 32 μCi/ml, 48 hours", "result": 97.13, "unit": "%"}, {"measurement": "Percentage of ^225Ac present in [^225Ac]Ac-DOTA-TATE", "setting": "[2]; 32 μCi/ml, 72 hours", "result": 95.31, "unit": "%"}, {"measurement": "Percentage of ^225Ac present in [^225Ac]Ac-DOTA-TATE", "setting": "[2]; 32 μCi/ml, 96 hours", "result": 92.52, "unit": "%"}, {"measurement": "Percentage of ^225Ac present in [^225Ac]Ac-DOTA-TATE", "setting": "[2]; 32 μCi/ml, 120 hours", "result": 85.90, "unit": "%"}, {"measurement": "Percentage of ^225Ac present in [^225Ac]Ac-DOTA-TATE", "setting": "[2]; 68 μCi/ml, 0 hour", "result": 99.06, "unit": "%"}, {"measurement": "Percentage of ^225Ac present in [^225Ac]Ac-DOTA-TATE", "setting": "[2]; 68 μCi/ml, 24 hours", "result": 98.22, "unit": "%"}, {"measurement": "Percentage of ^225Ac present in [^225Ac]Ac-DOTA-TATE", "setting": "[2]; 68 μCi/ml, 48 hours", "result": 95.93, "unit": "%"}, {"measurement": "Percentage of ^225Ac present in [^225Ac]Ac-DOTA-TATE", "setting": "[2]; 68 μCi/ml, 72 hours", "result": 95.36, "unit": "%"}, {"measurement": "Percentage of ^225Ac present in [^225Ac]Ac-DOTA-TATE", "setting": "[2]; 68 μCi/ml, 96 hours", "result": 86.92, "unit": "%"}, {"measurement": "Percentage of ^225Ac present in [^225Ac]Ac-DOTA-TATE", "setting": "[2]; 126 μCi/ml, 0 hour", "result": 99.11, "unit": "%"}, {"measurement": "Percentage of ^225Ac present in [^225Ac]Ac-DOTA-TATE", "setting": "[2]; 126 μCi/ml, 24 hours", "result": 95.77, "unit": "%"}, {"measurement": "Percentage of ^225Ac present in [^225Ac]Ac-DOTA-TATE", "setting": "[2]; 126 μCi/ml, 48 hours", "result": 84.99, "unit": "%"}, {"measurement": "Percentage of ^225Ac present in [^225Ac]Ac-DOTA-TATE", "setting": "[2]; 301 μCi/ml, 0 hour", "result": 99.09, "unit": "%"}, {"measurement": "Percentage of ^225Ac present in [^225Ac]Ac-DOTA-TATE", "setting": "[2]; 301 μCi/ml, 24 hours", "result": 97.53, "unit": "%"}, {"measurement": "Percentage of ^225Ac present in [^225Ac]Ac-DOTA-TATE", "setting": "[2]; 301 μCi/ml, 48 hours", "result": 88.78, "unit": "%"}, {"measurement": "Percentage of ^225Ac present in [^225Ac]Ac-DOTA-TATE", "setting": "[2]; 550 μCi/ml, 0 hour", "result": 98.87, "unit": "%"}, {"measurement": "Percentage of ^225Ac present in [^225Ac]Ac-DOTA-TATE", "setting": "[2]; 550 μCi/ml, 24 hours", "result": 97.04, "unit": "%"}, {"measurement": "Percentage of ^225Ac present in [^225Ac]Ac-DOTA-TATE", "setting": "[2]; 550 μCi/ml, 48 hours", "result": 85.63, "unit": "%"}, {"measurement": "Percentage of ^225Ac present in [^225Ac]Ac-DOTA-TATE", "setting": "[3]; DTPA 0.05 mg/ml, 0 hour", "result": 98.74, "unit": "%"}, {"measurement": "Percentage of ^225Ac present in [^225Ac]Ac-DOTA-TATE", "setting": "[3]; DTPA 0.05 mg/ml, 24 hours", "result": 97.67, "unit": "%"}, {"measurement": "Percentage of ^225Ac present in [^225Ac]Ac-DOTA-TATE", "setting": "[3]; DTPA 0.05 mg/ml, 48 hours", "result": 95.34, "unit": "%"}, {"measurement": "Percentage of ^225Ac present in [^225Ac]Ac-DOTA-TATE", "setting": "[3]; DTPA 0.05 mg/ml, 72 hours", "result": 94.62, "unit": "%"}, {"measurement": "Percentage of ^225Ac present in [^225Ac]Ac-DOTA-TATE", "setting": "[3]; DTPA 0.1 mg/ml, 0 hour", "result": 97.52, "unit": "%"}, {"measurement": "Percentage of ^225Ac present in [^225Ac]Ac-DOTA-TATE", "setting": "[3]; DTPA 0.1 mg/ml, 24 hours", "result": 98.30, "unit": "%"}, {"measurement": "Percentage of ^225Ac present in [^225Ac]Ac-DOTA-TATE", "setting": "[3]; DTPA 0.1 mg/ml, 48 hours", "result": 96.74, "unit": "%"}, {"measurement": "Percentage of ^225Ac present in [^225Ac]Ac-DOTA-TATE", "setting": "[3]; DTPA 0.1 mg/ml, 72 hours", "result": 94.36, "unit": "%"}, {"measurement": "Percentage of ^225Ac present in [^225Ac]Ac-DOTA-TATE", "setting": "[3]; DTPA 0.3 mg/ml, 0 hour", "result": 98.06, "unit": "%"}, {"measurement": "Percentage of ^225Ac present in [^225Ac]Ac-DOTA-TATE", "setting": "[3]; DTPA 0.3 mg/ml, 24 hours", "result": 97.19, "unit": "%"}, {"measurement": "Percentage of ^225Ac present in [^225Ac]Ac-DOTA-TATE", "setting": "[3]; DTPA 0.3 mg/ml, 48 hours", "result": 96.11, "unit": "%"}, {"measurement": "Percentage of ^225Ac present in [^225Ac]Ac-DOTA-TATE", "setting": "[3]; DTPA 0.3 mg/ml, 72 hours", "result": 93.60, "unit": "%"}, {"measurement": "Percentage of ^225Ac present in [^225Ac]Ac-DOTA-TATE", "setting": "[3]; DTPA 0.5 mg/ml, 0 hour", "result": 98.40, "unit": "%"}, {"measurement": "Percentage of ^225Ac present in [^225Ac]Ac-DOTA-TATE", "setting": "[3]; DTPA 0.5 mg/ml, 24 hours", "result": 97.28, "unit": "%"}, {"measurement": "Percentage of ^225Ac present in [^225Ac]Ac-DOTA-TATE", "setting": "[3]; DTPA 0.5 mg/ml, 48 hours", "result": 95.07, "unit": "%"}, {"measurement": "Percentage of ^225Ac present in [^225Ac]Ac-DOTA-TATE", "setting": "[3]; DTPA 0.5 mg/ml, 72 hours", "result": 92.73, "unit": "%"}, {"measurement": "Percentage of ^225Ac present in [^225Ac]Ac-DOTA-TATE", "setting": "[3]; DTPA 0.8 mg/ml, 0 hour", "result": 98.02, "unit": "%"}, {"measurement": "Percentage of ^225Ac present in [^225Ac]Ac-DOTA-TATE", "setting": "[3]; DTPA 0.8 mg/ml, 24 hours", "result": 97.60, "unit": "%"}, {"measurement": "Percentage of ^225Ac present in [^225Ac]Ac-DOTA-TATE", "setting": "[3]; DTPA 0.8 mg/ml, 48 hours", "result": 96.57, "unit": "%"}, {"measurement": "Percentage of ^225Ac present in [^225Ac]Ac-DOTA-TATE", "setting": "[3]; DTPA 0.8 mg/ml, 72 hours", "result": 93.11, "unit": "%"}, {"measurement": "Percentage of ^225Ac present in [^225Ac]Ac-DOTA-TATE", "setting": "[3]; DTPA 1.0 mg/ml, 0 hour", "result": 98.25, "unit": "%"}, {"measurement": "Percentage of ^225Ac present in [^225Ac]Ac-DOTA-TATE", "setting": "[3]; DTPA 1.0 mg/ml, 24 hours", "result": 97.37, "unit": "%"}]}
